Data on 1 molecule can be found in publication PMC10438374, “FAN1 removes triplet repeat extrusions via a PCNA- and RFC-dependent mechanism” (Proceedings of the National Academy of Sciences of the …, 2023).

The target of this assay is T1, MutLα (MLH1/PMS2 heterodimer), recombinant human (human, UniProt P40692 1-756; P54278 1-862).
T1 construct: MLH1 subunit of human MutLα; PMS2 subunit of human MutLα; Heterodimer; source: recombinant (details in SI Appendix)
The assay can be described thus: far-Western, overlay or dot blot; far-western analysis of FAN1 and MutLα (SI Appendix, Fig. S4E); which protein was spotted is not told in the main text. The following applies: both partners purified.

B1: FAN1 (FANCD2 and FANCI-associated nuclease 1), recombinant full-length human (enzyme, UniProt Q9Y2M0 1-1017, looked up)
chain: MMSEGKPPDKKRPRRSLSISKNKKKASNSIISCFNNAPPAKLACPVCSKMVPRYDLNRHLDEMCANNDFVQVDPGQVGLINSNVSMVDLTSVTLEDVTPKKSPPPKTNLTPGQSDSAKREVKQKISPYFKSNDVVCKNQDELRNRSVKVICLGSLASKLSRKYVKAKKSIDKDEEFAGSSPQSSKSTVVKSLIDNSSEIEDEDQILENSSQKENVFKCDSLKEECIPEHMVRGSKIMEAESQKATRECEKSALTPGFSDNAIMLFSPDFTLRNTLKSTSEDSLVKQECIKEVVEKREACHCEEVKMTVASEAKIQLSDSEAKSHSSADDASAWSNIQEAPLQDDSCLNNDIPHSIPLEQGSSCNGPGQTTGHPYYLRSFLVVLKTVLENEDDMLLFDEQEKGIVTKFYQLSATGQKLYVRLFQRKLSWIKMTKLEYEEIALDLTPVIEELTNAGFLQTESELQELSEVLELLSAPELKSLAKTFHLVNPNGQKQQLVDAFLKLAKQRSVCTWGKNKPGIGAVILKRAKALAGQSVRICKGPRAVFSRILLLFSLTDSMEDEDAACGGQGQLSTVLLVNLGRMEFPSYTINRKTHIFQDRDDLIRYAAATHMLSDISSAMANGNWEEAKELAQCAKRDWNRLKNHPSLRCHEDLPLFLRCFTVGWIYTRILSRFVEILQRLHMYEEAVRELESLLSQRIYCPDSRGRWWDRLALNLHQHLKRLEPTIKCITEGLADPEVRTGHRLSLYQRAVRLRESPSCKKFKHLFQQLPEMAVQDVKHVTITGRLCPQRGMCKSVFVMEAGEAADPTTVLCSVEELALAHYRRSGFDQGIHGEGSTFSTLYGLLLWDIIFMDGIPDVFRNACQAFPLDLCTDSFFTSRRPALEARLQLIHDAPEESLRAWVAATWHEQEGRVASLVSWDRFTSLQQAQDLVSCLGGPVLSGVCRHLAADFRHCRGGLPDLVVWNSQSRHFKLVEVKGPNDRLSHKQMIWLAELQKLGAEVEVCHVVAVGAKSQSLS
notes: FAN1 (FANCD2 and FANCI-associated nuclease 1), human, full length; also called FAN1 nuclease; source: recombinant; prepared as per previously established procedures (details in SI Appendix)
With B1, the binding result was “binds”.
